Test [1] concerns the target T1, human CCR8 (human, UniProt P51685 1-355). The experiment in a line: cell-based or functional assay.
For test [2], the target named is T1, human CCR8. Put plainly: cell-based or functional assay. This is another data set of the same source.
Test [3] has as its target T1, human CCR8. Put plainly: cell-based or functional assay. This is another data set of the same source.
In test [4] the target is T1, human CCR8. Put plainly: cell-based or functional assay. The source holds these as a separate data set.
Test [5] addresses T1, human CCR8. The experiment in a line: cell-based or functional assay. The source holds these as a separate data set.
The target in a further test is T2, human CCR4 (human, UniProt P51679 1-360).
T2 construct: full length, on Expi293 cells; also called hCCR4
T2 sequence: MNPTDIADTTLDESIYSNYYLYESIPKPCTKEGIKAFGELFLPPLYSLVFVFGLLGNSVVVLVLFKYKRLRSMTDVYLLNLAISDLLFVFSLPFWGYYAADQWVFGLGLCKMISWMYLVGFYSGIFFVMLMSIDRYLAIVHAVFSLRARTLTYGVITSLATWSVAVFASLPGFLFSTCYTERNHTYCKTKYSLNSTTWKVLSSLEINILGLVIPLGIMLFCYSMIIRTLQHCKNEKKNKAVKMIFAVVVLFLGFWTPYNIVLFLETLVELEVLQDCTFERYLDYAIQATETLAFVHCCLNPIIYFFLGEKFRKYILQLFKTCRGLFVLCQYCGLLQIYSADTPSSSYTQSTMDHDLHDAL
Put plainly: flow cytometry on Expi293 transfectants.

Another test deals with hCCR8 (K35A) (human, UniProt P51685 1-355). Put plainly: flow cytometry on Expi293 transfectants. For orientation: In flow cytometry, cells or beads pass a laser one at a time.
The target in a further test is T3, N-ter hCCR4-hCCR8 (human).
T3 construct: chimera on Expi293 cells; also called human CCR8 with the N-terminal region substituted with that of human CCR4
T3 chain: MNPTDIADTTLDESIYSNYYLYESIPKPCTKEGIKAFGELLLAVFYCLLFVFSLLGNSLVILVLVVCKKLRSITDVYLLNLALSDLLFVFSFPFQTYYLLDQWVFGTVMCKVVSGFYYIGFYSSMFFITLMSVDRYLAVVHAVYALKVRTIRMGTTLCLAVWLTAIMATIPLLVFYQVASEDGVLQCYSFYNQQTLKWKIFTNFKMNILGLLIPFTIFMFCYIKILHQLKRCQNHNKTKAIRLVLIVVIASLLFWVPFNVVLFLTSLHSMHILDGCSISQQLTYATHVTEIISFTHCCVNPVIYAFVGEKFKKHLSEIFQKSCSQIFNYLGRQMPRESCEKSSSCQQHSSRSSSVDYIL
The experiment in a line: flow cytometry on Expi293 transfectants.

The next test deals with T4, hCCR8 (Y17A) (human, UniProt P51685 1-355).
T4 construct: also called mutant in which Y at position 17 of human CCR8 is substituted for A
The experiment in a line: flow cytometry on Expi293 transfectants.

A further test deals with T5, mouse CCR8 (mouse, UniProt P56484 1-353).
T5 construct: full length, on Expi293 cells; also called mCCR8
T5 sequence: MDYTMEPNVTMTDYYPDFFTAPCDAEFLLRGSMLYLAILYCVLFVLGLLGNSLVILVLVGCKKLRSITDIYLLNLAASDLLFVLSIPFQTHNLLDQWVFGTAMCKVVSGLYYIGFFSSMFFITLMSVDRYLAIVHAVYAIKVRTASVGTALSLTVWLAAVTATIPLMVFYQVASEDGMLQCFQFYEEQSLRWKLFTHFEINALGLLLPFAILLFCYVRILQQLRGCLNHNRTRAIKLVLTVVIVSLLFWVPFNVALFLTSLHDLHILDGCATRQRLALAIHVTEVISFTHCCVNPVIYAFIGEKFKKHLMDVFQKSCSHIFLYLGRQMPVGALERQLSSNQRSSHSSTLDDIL
Put plainly: flow cytometry on Expi293 transfectants.

Another test deals with T6, loop2 hCCR4-hCCR8 (human, UniProt P51685 1-355).
T6 construct: chimera on Expi293 cells; hCCR8 172-202 replaced; also called loop2-human CCR4-substituted human CCR8
The experiment in a line: FCM, Expi293 transfectants; Δ = significantly reduced binding activity vs wild-type hCCR8.

Test [6] concerns the target T7, loop1 hCCR4-hCCR8 (human, UniProt P51685 1-355).
T7 construct: chimera on Expi293 cells; hCCR8 94-107 replaced; also called loop1-human CCR4-substituted human CCR8
Described as above.

The target of test [7] is T1, human CCR8. Put plainly: cell-based or functional assay. This is another data set of the same source.
The next test addresses T8, loop3 hCCR4-hCCR8 (human, UniProt P51685 1-355).
T8 construct: chimera on Expi293 cells; hCCR8 264-280 replaced
The experiment in a line: FCM, Expi293 transfectants; blank cell = same binding activity as wild-type hCCR8.

In test [8] the target is T7, loop1 hCCR4-hCCR8. Put plainly: flow cytometry on Expi293 transfectants.

Positions count from the first letter of the chain named. In names and notes the source's numbering stands. Read-outs that look alike come from different tables or passages of the source.

B1: h10A11 (IGKV4-1/IGHV3-15 T94R) (antibody, V domains shown)
VH: EVQLVESGGALVKPGGSLRLSCAASGFTFSTYALYWVRQAPGKGLEWVGRIRSKSNNYATYYADSVKDRFTISRDDSKNTLYLQMNSLKTEDTAVYYCTRARFYYSDYGYAMDYWGQGTLVTVSS
VL: DIVMTQSPDSLAVSLGERATINCRSSKSLLHSNGNTYLYWYQQKPGQPPKLLIYRMSNLASGVPDRFSGSGSGTDFTLTISSLQAEDVAVYYCMQHLEYPLTFGQGTKLEIKR
Take B1: the “IC50 (nM), Ca2+ influx by 200 nM hCCL1” value with human CCR8 [1] amounted to 0.15 nM. In addition, in the test with human CCR8 [2], the “IC50 ratio (WT IC50/mutant IC50)” value came to 1 ratio.

B2: h10A11 (IGKV4-1/IGHV3-73) (antibody, V domains shown)
VH: B1 VH with A10G, K13Q, R19K, T28A, S30N, P41S, L81A
VL: B1 VL
With B2, in the test with human CCR8 [3], the “IC50 ratio (WT IC50/mutant IC50)” value was found to be 1 ratio. In addition, the “IC50 (nM), Ca2+ influx by 200 nM hCCL1” value with human CCR8 [1] stood at 0.17 nM.

B3: h19D7 (IGKV2-18/IGHV3-73) (antibody, V domains shown)
VH: EVQLVESGGGLVQPGGSLKLSCAASGFTFSTYAMYWVRQASGKGLEWVGRIRSKSNNYATYYADSVKDRFTISRDDSKNTAYLQMNSLKTEDTAVYYCTRGGYGNYRYAMDYWGQGTTVTVSS
VL: DIVMTQTPPSLPVNPGEPASISCRSSKSLLHSNGNTYLYWYLQKPGQSPQLLIYRVSNLASGVPDRFSGSGSGSDFTLKISWVEAEDVGVYYCMQHLEYPFTFGQGTKLEIK
For the molecule B3, the “IC50 (nM), Ca2+ influx by 200 nM hCCL1” value with human CCR8 [4] came out at 0.46 nM.

B4: 1H4 (antibody, V domains shown)
VH: EVQLVESGGRLVQPKGSLKLSCAASGFTFNTYAMYWIRQAPGKGLEWVARIRSKSNNYATYYADSVKDRFTISRDDSQSMLYLQMNNLKTEDTAMYYCVRARFYYSDYGYAMDYWGQGTSVTVSS
VL: DIVMTQAAPSVPVTPGESVSISCRSSKSLLHSNGNTYLYWFLQRPGQSPQLLIYRMSNLASGVPDRFSASGSGTAFTLRISRVEAEDVGVYYCMQHLEYPLTFGAGTKLELKR
notes: mouse hybridoma antibody, purified
As to B4, the “IC50 (nM), Ca2+ influx by 200 nM hCCL1” value with human CCR8 [5] amounted to 0.36 nM. Besides, the binding result with human CCR4 is on record as “no binding”; with hCCR8 (K35A) it was “no binding”; with N-ter hCCR4-hCCR8, “no binding”; with hCCR8 (Y17A), “no binding”; with mouse CCR8 it was “no binding”; in the test with loop2 hCCR4-hCCR8 it was “binds”. The binding result with loop1 hCCR4-hCCR8 [6] and with loop3 hCCR4-hCCR8 was “binds” each time. For the same molecule, in the test with human CCR8 [7], the “Neutralizing activity IC50 (nM), Ca2+ influx by 100 nM hCCL1” value was determined as 0.32 nM.

B5: 2C7 (antibody, V domains shown)
VH: QVQLKQSGPSLVQPSQSLSITCTVSGFSLTAYGVHWIRQSPGKGQEWLGVIWRGGSTDYNAAFMSRLTITKDNSKSQVFFKMNSLQADDTAIYYCAKKGGSYAMDYWGQGTSVTVSS
VL: DVVLTQTPLSLPVSLGGQASISCRSSQSLVHSNGNTYLHWYLQKPGQSPKLLIYKVSNRFSGVPDRFSGSGSGTDFTLKISRVEAEDLGVYFCSQSTQVPLTFGAGTKLELKR
notes: as for B4
With B5, the “IC50 (nM), Ca2+ influx by 200 nM hCCL1” value with human CCR8 [5] is 1.19 nM. Also, the binding result with human CCR4 was “no binding”; in the test with N-ter hCCR4-hCCR8 it was “no binding”; with hCCR8 (Y17A), “no binding”; with loop1 hCCR4-hCCR8 [8] it was “no binding”; with mouse CCR8, “no binding”; in the test with loop2 hCCR4-hCCR8 it was “binds”. Further, in the test with loop3 hCCR4-hCCR8, the binding result is “binds”. In addition, in the test with human CCR8 [7], the “Neutralizing activity IC50 (nM), Ca2+ influx by 100 nM hCCL1” value came out at 0.4 nM.

For the origin of these results see patent US20230256092A1 (SHIONOGI, published 2023).
